Experimental data: the RNAGym collection of RNA variant scans (doi:10.1073/pnas.2313332121)

B1: TPR t1 (parent)
chain: GACCAAUCUGCCCUCAGAGCUCGAGAACAUCUUCGGAUGCAGAGGAGGCAGGCUUCGGUGGCGCGAUAGCGCCAACGUCCUCAACCUCCAAUGCAUCCCACCACAUGAUGAUGCCUGAAGAGCCUUGGUUUUUUG

Variants of: B1
Test: polymerase ribozyme fitness, log enrichment relative to wild type (log ratio); higher = more active; in vitro selection for triplet polymerase activity
Outline: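 Streptavidin-bead capture of gel-excised extended constructs, followed by RT-PCR, closed a single triplicate in vitro selection round. That round began by annealing PCR-built, transcribed mutant libraries of each subunit of a heterodimeric triplet polymerase ribozyme with a biotinylated primer, the partner subunit and triplets, then incubating them frozen at −7 °C. After Illumina sequencing of inputs and outputs, genotypes needed ≥10 input reads and ≥1 read per output. Fitness is the base-2 logarithm of genotype enrichment over wild-type enrichment, using inverse-variance-weighted replicate averages.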

Variant | polymerase ribozyme fitness (log ratio)
A26C A43G G63C G69A C115G | -4.47
C28G C40U C86A | -3.65
A24G A90C | -3.03
C28A G69C C124A | -4.58
A26C G120C G127A | -5.53
A27U A29C G35C A68U U109G A119G G127A | -6.64
A26G A37U C53G | -3.12
A24G C115U | -2.59
A27U C123U | -1.65
A27U C123G | -0.165
A26U G71A C82U | -4.08
A27G U59C A68G C99U U112A | -5.37
A27G C72U C101A C104A | -4.48
A27U A84G | -4.18
A27U A84U | -3.79
C28A G45U C72A C115A | -6.12
A26C G117U A119U | -7.54
G25U G110U | -5.41
A26G C89U | -2.94
A26G C89G | -3.55
A26U C72A U129A | -4.07

Variant | polymerase ribozyme fitness (log ratio)
A24G U55G C64U | -1.64
A27G U78C | -2.35
C28G G113C | -6.23
C28A U132C | -4.37
A24G A27G G120A | -3.91
A26U C73U U81A | -3.86
A27G G128C | -4.95
C28G A83G | -3.41
A27U C62A C101U A119U | -5.17
A26U C62U U129A | -5.15
A24G U112G | -1.29
A24G G39C U92G C104U | -5.73
C28G U32C | -2.94
A24G C49G | -1.9
C28A A66C A111U C115G | -6.53
G25U G61U | -5.8
C28G G45U G52A G107C U109A C124A | -5.94
A27U G36C | -3.53
A27C C89U | -4.35
A26G U78C U106A G113U C115A | -5.3
G25A C73A | -6.13

Variant | polymerase ribozyme fitness (log ratio)
A27G C56A | -2.09
C28A G35C G61A A84C A103G C114A G117C | -7.02
C28A A50C C82U C115A | -4.58
A26G G45C A95G C98G | -7.76
G25A C28A C31G G63U A74G C99U | -7.56
A27C U112C G120C U126C U131A | -3.22
C28A C62A | -5.73
A24G G69C C85G | -4.96
A26U C80U | -4.31
A27G G69C A90C | -4.21
C28G C72A | -3.15
A27G G60U | -1.6
A27G G60C | -2.15
A27G C70U C80A | -4.47
C28A U30G A43G G110C | -6.92
A26G G71A A84C C89U G93C C114U | -6.05
G25A C72A C86G | -6.66
A26G A37U C49U G120U | -2.45
G25A G60U G117A | -7.98
A24U U30G G63U C102G | -5.42
A24G A26G A90C C115U | -2.12

Variant | polymerase ribozyme fitness (log ratio)
A26G G36A A108U C123G | -5.15
A24G A84U | -1.7
C28G U96A | -3.94
A26G C40U G63C U81C U130A | -4.66
A24G U81A | -2.64
A26U G51A C64U A91U G120A C124G | -6.85
G25U A46G | -6.02
A27G G71A C72U A95G | -4
A24U G39U G60U C115A U129C | -6.65
G25C A83C C94G A103U C124G U125C | -8.57
A27G G48U | -2.47
A24G G52A A66U C73U A91G | -4.6
A27U A50C | -3.87
C28G A50U | -4.17
A24U U38A C72U C80G C99U | -7.56
A27U C72G | -3.21
A27U A46C U116C | -6.31
C28G U92G G117A A121G | -4.67
A26C G117C G122A | -7.15
A26C G60C | -6.06
A27C G69U C73A | -1.89
